The text below walks through data of patent publication US20260226185A1 (MAYO FOUNDATION FOR MEDICAL EDUCATION AND RESEARCH, published 2026).

The target in this test is T1, human B-cell activating factor receptor (BAFF-R) polypeptide (human, UniProt Q96RJ3 1-184).
T1 sequence: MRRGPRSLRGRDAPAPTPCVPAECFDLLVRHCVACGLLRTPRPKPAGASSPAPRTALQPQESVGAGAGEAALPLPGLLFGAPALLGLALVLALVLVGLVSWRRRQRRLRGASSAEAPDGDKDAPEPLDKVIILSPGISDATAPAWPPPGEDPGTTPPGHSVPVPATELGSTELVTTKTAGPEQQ
Nature of the test: flow cytometry on BAFF-R expressing 293FT cells vs 293FT cells, R-PE goat anti-mouse IgG detection. As to the method:
The lead clone was identified and advanced to purification. […] Following two washes in FACS (PBS with 2% bovine serum albumin), cells were incubated with R-PE conjugated goat anti-mouse IgG for 30 minutes at 4° C. Cells were then washed as before and resuspended in 400 μL FACS for analysis on an Attune flow cytometer (Thermo Fisher). […] Anti-BAFF-R monoclonal antibody development was monitored by R-phycoerythrin conjugated goat anti-mouse IgG (BD Bioscience, San Jose, California).

B1: anti-BAFF-R monoclonal antibody C21 (Clone #1) (antibody, V domains shown)
VH: DVQLVESGGGLVQPGGSRKLSCAASGFTFSSFGMHWVRQAPEKGLEWVAYINSGSSTINYADTVKGRFTISRDNPKNTLFLQMTSLRSEDTAMYYCTIYYYAMDYWGQGTSVTVSS
VL: DIVMSQSPSSLTVSVGEKVSMSCKSSQTLLYSGNQKNYLAWYQQKPGQSPKLLIYWASTRESGVPDRFAGSGSGTDFTLTISSVKAEDLAVYYCQQYYIYPPWTFGGGTKLEIK
notes: Mouse hybridoma antibody, tested as crude supernatant and as purified mAb and detected with R-PE goat anti-mouse IgG; the mouse constant regions and the isotype are not; also called hybridoma clone 21; mAb C21
Consider B1, for which the binding result is recorded as “binds”.
